Results on four molecules are retold here after patent US20120141463A1 (AstraZeneca / MedImmune, published 2012).

One test addresses T1, mIgM on RPMI 1788 cells (human, UniProt P01871 1-474).
T1 construct: whole, on cells; Endogenous immunoglobulin of the cell line; light chain not described; also called IgM (RPMI 1788 cells); membrane IgM
In words: FACS, primary antibody plus secondary (Gt α Mu or G α Hu); % cells staining and MF.

Test [1] addresses T2, cεmx.migis peptide (human, C-terminal -(Ahx)(K-Biot): aminohexanoic acid linker followed by a biotinylated lysine).
T2 construct: also called peptide (ii); cεmx.migs peptide
T2 peptide: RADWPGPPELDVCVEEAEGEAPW
In words: inhibition phage ELISA: cεmx.migis peptide on Neutravidin plate, phage with control IgG, A1c or B1, anti-M13-HRP.

Another test deals with T3, ε-migis peptide (human).
T3 construct: also called peptide (i); human ε-migis
T3 peptide: ELDVCVEEAEGEAPW-{Ahx-K(biotin)}
In words: peptide ELISA (Migis, cemx.migis, PIBP peptide); antibody concentration not shown.

Test [2] has as its target T4, peptide from phosphoinositide binding protein (human).
T4 construct: also called peptide (vi); PIBP peptide
T4 peptide: TQLLCVEAFEGEEPW-{Ahx-K(biotin)}
The test is described as above.

For test [3], the target named is T2, cεmx.migis peptide. The test can be described thus: inhibition phage ELISA: cεmx.migis peptide on Neutravidin plate, phage with irrelevant IgG control or A1c IgG, anti-M13-HRP. (In general: In an ELISA, binding on a coated surface is turned into a signal by an enzyme label.)

No end group written: not given here. Ahx = NCCCCCC(=O)O

T1 sequence (P01871 whole entry): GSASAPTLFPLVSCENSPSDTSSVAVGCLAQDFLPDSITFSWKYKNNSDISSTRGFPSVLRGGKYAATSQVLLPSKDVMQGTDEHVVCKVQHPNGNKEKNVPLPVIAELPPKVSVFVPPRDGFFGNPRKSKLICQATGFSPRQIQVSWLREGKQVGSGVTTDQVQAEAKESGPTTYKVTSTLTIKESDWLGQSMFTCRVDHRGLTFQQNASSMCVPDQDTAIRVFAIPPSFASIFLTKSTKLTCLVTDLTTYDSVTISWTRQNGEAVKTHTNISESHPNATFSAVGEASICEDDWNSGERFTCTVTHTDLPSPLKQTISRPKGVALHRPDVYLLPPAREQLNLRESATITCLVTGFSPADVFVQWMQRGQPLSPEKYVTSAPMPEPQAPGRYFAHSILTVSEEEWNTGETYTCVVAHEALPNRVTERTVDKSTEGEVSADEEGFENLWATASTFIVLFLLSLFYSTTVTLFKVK

B1: D5 antibody (antibody, V domains shown)
VH: EVQLLESGGGLVQPGGSLRLSCAASGFTFSKYHMVWVRQAPGKGLEWVSSIGPSGGNTYYADSVKGRFTISRDNSKNTLYLQMNSLRAEDTATYYCARALGATFDYWGQGTLVTVSS
VL: DIQMTQSPLSLPVTLGQPASISCKSSQSLVYRDGITYLSWFQQRPGQSPRRLIYKVSNRDSGVPDRFSGSGSDSNFTLKISSVEAEDVGLYFCMQGSHWPFTFGPGTKVDIKR
notes: Fully human clone from the Dyax FAB-310 Fab phage library, converted to full length IgG (detected with an anti-human IgG1 Fc antibody); also called D5 IgG; clone D5
As to B1, the binding result with mIgM on RPMI 1788 cells is given as “no binding”; with cεmx.migis peptide [1], “binds”; with ε-migis peptide it was “no binding”; in test [2], “no binding”.

B2: A1c antibody (antibody, V domains shown)
VH: EVQLLESGGGLVQPGGSLRLSCAASGFTFSFYSMLWVRQAPGKGLEWVSYIGPSGGKTYYADSVKGRFTISRDNSKNTLYLQMNSLRAEDTAMYYCARRYCSGGSCYFDYWGQGTLVTVSS
VL: DIQMTQSPSTLSASIGDRVTITCRASQSINSWLAWYQQKPGKGPDLLIYKASSLQSGVPSRFSGSGSGTEFTLTISSLQPDDFATYYCQQYSSWPLTFGGGTKVEIKR
notes: Human Fab phage clone converted to full IgG; also called anti ε-migis antibody A1c
B2: the binding result (with cεmx.migis peptide [3]; with ε-migis peptide; in test [2]) was “binds” each time.

B3: B1 antibody (antibody, V domains shown)
VH: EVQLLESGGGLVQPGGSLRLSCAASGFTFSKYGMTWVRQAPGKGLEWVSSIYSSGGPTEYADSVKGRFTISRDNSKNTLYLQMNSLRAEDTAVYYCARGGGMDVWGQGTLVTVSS
VL: DIQMTQSPVSLPVTLGQPASISCRSSHSLVYSHGGTYLNWFQQRPGRSPRRLIYQVSNRDSGVPDRFSGSGSDTDFTLQISRVEADDIGIYYCMQSTYWPYAFGQGTKLDIKR
notes: Human Fab phage clone converted to full IgG; also called CP1-B1
Regarding B3, the binding result with cεmx.migis peptide [1] is given as “binds”; with ε-migis peptide it was “no binding”; in test [2], “no binding”.

B4: F4 antibody (antibody, V domains shown)
VH: EVQLLESGGGLVQPGGSLRLSCAASGFTFSNYGMFWVRQAPGKGLEWVSSIWPSGGNTMYADSVKGRFTISRDNSKNTLYLQMNSLRAEDTAVYYCARASYYGMDVWGQGTTVTVSS
VL: DIQMTQSPSSLSASIGDRVTITCRGSQNIGRYLNWYQHKPGKAPDLLVYAASSLRSGVPSRFSGSGSGRDFTLTISSLQPGDFATYYCQQSYSAPFTFGAGTKVDVKR
notes: Human Fab phage clone converted to full length IgG; also called clone F4
With B4, in the test with cεmx.migis peptide [1], the binding result was “binds”.
